From article PMC4319037, “The B-type Channel Is a Major Route for Iron Entry into the Ferroxidase Center and Central Cavity of Bacterioferritin*” (The Journal of Biological Chemistry, 2014)

Biological target: the molecule itself
Experiment: crystal structure; hanging-drop vapor diffusion; ammonium sulfate (50-80% saturated), NaCl 0.1 M, Tris HCl 20 mM pH 7.2; BFR D132F with <1 heme/24-mer; 12 monomers in the asymmetric unit; 2.0 Å

B1: E. coli bacterioferritin D132F variant (natural protein)
chain: not shown
notes: Bacterioferritin (BFR), E. coli, bfr gene in pET21a (pALN1) with D132F made by QuikChange; the model holds '12 complete monomers' in the asymmetric unit (1896 C-alpha atoms for the 12-mer, i.e. 158 per chain); Crystallised with <1 heme/24-mer, free of metal ions (apo); no tag is mentioned; also called BFR D132F; apo-D132F variant; copies: 24
binding result: binds
